Experimental data from IntAct's records for PubMed 9153189.

B1: Tumor necrosis factor receptor superfamily member 14 (Homo sapiens), Q92956 (parent)
chain: MEPPGDWGPPPWRSTPKTDVLRLVLYLTFLGAPCYAPALPSCKEDEYPVGSECCPKCSPGYRVKEACGELTGTVCEPCPPGTYIAHLNGLSKCLQCQMCDPAMGLRASRNCSRTENAVCGCSPGHFCIVQDGDHCAACRAYATSSPGQRVQKGGTESQDTLCQNCPPGTFSPNGTLEECQHQTKCSWLVTKAGAGTSSSHWVWWFLSGSLVIVIVCSTVGLIICVKRRKPRGDVVKVIVSVQRKRQEAEGEATVIEALQAPPDVTTVAVEETIPSFTGRSPNH
partner: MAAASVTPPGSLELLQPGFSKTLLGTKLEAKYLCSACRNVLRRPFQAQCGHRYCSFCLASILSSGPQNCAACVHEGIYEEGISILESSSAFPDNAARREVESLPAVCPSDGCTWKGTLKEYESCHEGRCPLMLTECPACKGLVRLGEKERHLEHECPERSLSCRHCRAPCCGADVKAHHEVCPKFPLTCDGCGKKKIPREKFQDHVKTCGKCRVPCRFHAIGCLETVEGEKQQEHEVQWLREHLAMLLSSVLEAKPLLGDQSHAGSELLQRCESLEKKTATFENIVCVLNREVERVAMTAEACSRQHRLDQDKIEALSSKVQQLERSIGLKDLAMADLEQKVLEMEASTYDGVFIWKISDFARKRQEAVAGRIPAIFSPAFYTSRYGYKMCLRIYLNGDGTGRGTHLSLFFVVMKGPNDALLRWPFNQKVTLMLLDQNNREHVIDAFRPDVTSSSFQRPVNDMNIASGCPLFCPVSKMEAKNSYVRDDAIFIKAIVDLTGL
B2: Tumor necrosis factor receptor superfamily member 14 (Homo sapiens), Q92956 (parent)
chain: B1 chain

Variants of: B1
Details: with traf2_human TRAF2, Q12933
For MEPPGDWGPPPWRSTPKTDVLRLVLYLTFLGAPCYAPALPSCKEDEYPVGSECCPKCSPGYRVKEACGELTGTVCEPCPPGTYIAHLNGLSKCLQCQMCDPAMGLRASRNCSRTENAVCGCSPGHFCIVQDGDHCAACRAYATSSPGQRVQKGGTESQDTLCQNCPPGTFSPNGTLEECQHQTKCSWLVTKAGAGTSSSHWVWWFLSGSLVIVIVCSTVGLIICVKRRKPRGDVVKVIVSVQRKRQEAEGEATVIEALQAPPDVTTVAVEATIPSFTGRSPNH [E271A], the “effect of a mutation on the interaction” value was “decreasing interaction”.

Variants of: B2
Details: with traf5_human TRAF5, O00463
Sequence of traf5_human TRAF5, O00463 (O00463 whole entry): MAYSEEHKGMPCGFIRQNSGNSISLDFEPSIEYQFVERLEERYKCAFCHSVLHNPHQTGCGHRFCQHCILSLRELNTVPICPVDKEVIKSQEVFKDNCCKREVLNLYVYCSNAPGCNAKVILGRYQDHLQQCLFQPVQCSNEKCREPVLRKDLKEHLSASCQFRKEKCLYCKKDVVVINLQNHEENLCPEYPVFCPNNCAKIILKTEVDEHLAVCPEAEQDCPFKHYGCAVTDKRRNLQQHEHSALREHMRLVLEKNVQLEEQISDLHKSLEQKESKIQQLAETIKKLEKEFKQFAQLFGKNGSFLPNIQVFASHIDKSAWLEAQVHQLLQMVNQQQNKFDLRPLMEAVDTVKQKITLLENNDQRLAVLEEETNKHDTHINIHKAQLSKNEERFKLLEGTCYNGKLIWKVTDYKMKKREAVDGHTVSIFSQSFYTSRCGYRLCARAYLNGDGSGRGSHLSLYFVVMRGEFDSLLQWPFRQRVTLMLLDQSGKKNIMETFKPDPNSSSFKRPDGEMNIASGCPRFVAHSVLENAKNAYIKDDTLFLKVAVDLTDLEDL
For MEPPGDWGPPPWRSTPKTDVLRLVLYLTFLGAPCYAPALPSCKEDEYPVGSECCPKCSPGYRVKEACGELTGTVCEPCPPGTYIAHLNGLSKCLQCQMCDPAMGLRASRNCSRTENAVCGCSPGHFCIVQDGDHCAACRAYATSSPGQRVQKGGTESQDTLCQNCPPGTFSPNGTLEECQHQTKCSWLVTKAGAGTSSSHWVWWFLSGSLVIVIVCSTVGLIICVKRRKPRGDVVKVIVSVQRKRQEAEGEATVIEALQAPPDVTTVAVEATIPSFTGRSPNH [E271A], the “effect of a mutation on the interaction” value was “decreasing interaction”.
